Reference: US20190276541A1 (Seagen, published 2019)

Biological target: T1, CD3 on human T cells (human, UniProt P07766 23-207)
T1 construct: whole, on cells; The native CD3 complex on primary T cells, which were gated with anti-CD2-FITC; also called T cell receptor CD3; CD3 complex
Assay: flow cytometry on human T cells in PBMCs, anti-Fc Alexa 647 secondary
Method: T cells are used to assess binding of antibodies to CD3. For T cell binding assay, PBMCs are isolated from 100 ml of human blood sample using the protocol described previously. […] 50 μl of cells are added to each well of an assay plate. […] Equal volumes of PBMCs and bispecific antibody dilutions are mixed to produce a binding curve. Anti-CD2-FITC (BD Biosciences, San Jose, Calif.) is added to each well to selectively stain T cells. The plate is incubated for 1 hour at 4° C. Cells are washed and pelleted three times with FACS buffer consisting of PBS, 5% FBS and 0.05% sodium azide. […] Cells are washed and pelleted three times again with FACS buffer. Cells are then resuspended in 200 μL FACS buffer and analyzed on a BD ACCURI™ C6 flow cytometer (BD Biosciences, San Jose, Calif.).

T1 sequence (P07766 23-207): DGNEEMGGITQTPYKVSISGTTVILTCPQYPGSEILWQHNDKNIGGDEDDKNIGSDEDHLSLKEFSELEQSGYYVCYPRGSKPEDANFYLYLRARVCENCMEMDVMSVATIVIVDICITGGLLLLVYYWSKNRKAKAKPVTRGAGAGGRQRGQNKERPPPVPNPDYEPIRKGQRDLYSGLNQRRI

B1: 2G12-2B2 having VL0 and VH3 variable domains (antibody, V domains shown)
VH: EVQLVQSGAEVKKPGASVKVSCKASGYTFTDHAIHWVRQAPGQGLEWMGYFSPGNDDIKYNEKFRGRVTMTADKSSSTAYMELRSLRSDDTAVYFCKRSLSTPYWGQGTLVTVSS
VL: DIVMTQSPDSLAVSLGERATINCKSSQSLLNRGNHKNYLTWYQQKPGQPPKLLIYWASTRESGVPDRFSGSGSGTDFTLTISSLQAEDVAVYYCQNDYTYPYTFGQGTKVEIK
notes: also called 2G12-2B2 control; 2G12-2B2 comprising VL0 and VH3
B1: no binding (tested: 0 to 10 µg per 500,000 cells).
